{"source": "patent CN113583115A", "about": "(YANG SHENG TANG CO LTD; UNIV XIAMEN, dated 2021)", "binders": {"B1": {"name": "兔源单克隆抗体3F4 (antibody, V domains shown)", "VH": "QSVKESGGRLVTPGTPLTLTCTVSGFSLSSYWMSWVRQAPGKGLEWIGIIFTGGSTYYASWAKGRFTISKTSTTVDLKITSPTTEDTATYFCARTSYYDVSGWGVGRLDLWGQGTLVTVSS", "VL": "DPMLTQTASSVSAAVGGTVTISCQSSQSVYDNNWLGWYQQKPGQPPKLLIYSASTLASGVPSRFKGSGSGTQFTLTISDLECDDAATYYCAGGYSGNIFAFGGGTELEIL", "notes": "also called r3F4"}, "B2": {"name": "3F4人源化抗体 (VH SEQ ID NO:15 + VL SEQ ID NO:19) (antibody, V domains shown)", "VH": "EVQLVESGGGLVQPGGSLRLSCAASGFSLSSYWMSWVRQAPGKGLEWVSIIFTGGSTYYASWAKGRFTISRHNSKNTLYLQMNSLRAEDTAVYYCARTSYYDVSGWGVGRLDLWGQGTLVTVSS", "VL": "DIQMTQSPSTLSASVGDRVTITCQSSQSVYDNNWLGWYQQKPGKAPKLLIYSASTLASGVPSRFSGSGSGTEFTLTISSLQPDDFATYYCAGGYSGNIFAFGQGTKLEILR"}, "B3": {"name": "3F4人源化抗体 (VH SEQ ID NO:16 + VL SEQ ID NO:19) (antibody, V domains shown)", "VH": "B2 VH with V48I, S49G", "VL": "B2 VL"}, "B4": {"name": "3F4人源化抗体 (VH SEQ ID NO:17 + VL SEQ ID NO:19) (antibody, V domains shown)", "VH": "B2 VH with V92T, Y94F", "VL": "B2 VL"}, "B5": {"name": "3F4人源化抗体 (VH SEQ ID NO:18 + VL SEQ ID NO:19) (antibody, V domains shown)", "VH": "B2 VH with A23T, A24V", "VL": "B2 VL"}}, "key": {"SARS-CoV-2受体结合区RBD-His蛋白 [1]": {"target": "T1, SARS-CoV-2受体结合区RBD-His蛋白 (SARS-CoV-2, UniProt P0DTC2 316-550)"}, "[2]": {"target": "SARS-CoV-2 Sde18截短蛋白 (假病毒SARS-CoV2 VSVpp所携带) (SARS-CoV-2, UniProt P0DTC2 14-1255)", "test": "cell-based or functional assay"}, "SARS-CoV-2受体结合区RBD-mFc": {"target": "T2, SARS-CoV-2受体结合区RBD-mFc (SARS-CoV-2, UniProt P0DTC2 319-541)", "T2 construct": "domain: 受体结合区RBD", "test": "indirect ELISA, RBD-mFc coated at 2 μg/mL, HRP goat anti-rabbit IgG"}, "SARS-CoV-2受体结合区RBD-His蛋白 [3]": {"target": "T1, SARS-CoV-2受体结合区RBD-His蛋白", "test": "indirect ELISA, RBD-His coated at 2 μg/mL, HRP goat anti-human IgG"}}, "note": "Changes are numbered by the printed parent chain."}
{"binder": "B1", "values": [{"measurement": "Kd", "setting": "SARS-CoV-2受体结合区RBD-His蛋白 [1]", "result": 8.79, "unit": "nM"}, {"measurement": "IC50 (SARS-CoV2 VSVpp假病毒感染模型中和, BHK21-hACE2细胞)", "setting": "[2]", "result": 1.95, "unit": "ng/mL"}, {"measurement": "EC50", "setting": "SARS-CoV-2受体结合区RBD-mFc", "result": 14.4, "unit": "ng/mL"}]}
{"binder": "B2", "values": [{"measurement": "binding result", "setting": "SARS-CoV-2受体结合区RBD-His蛋白 [3]", "result": "binds"}]}
{"binder": "B3", "values": [{"measurement": "binding result", "setting": "SARS-CoV-2受体结合区RBD-His蛋白 [3]", "result": "binds"}]}
{"binder": "B4", "values": [{"measurement": "binding result", "setting": "SARS-CoV-2受体结合区RBD-His蛋白 [3]", "result": "binds"}]}
{"binder": "B5", "values": [{"measurement": "binding result", "setting": "SARS-CoV-2受体结合区RBD-His蛋白 [3]", "result": "binds"}]}
